Measurements published in patent US20170304437A1 (ALLIGATOR BIOSCIENCE, published 2017).
Blank lines part the entries; values can stand above or below the binder they belong to.

Assays:
[1] = target: T1, CD40-Fc (Ancell # 504-820) (human, UniProt P25942 21-193); test: binding ELISA, CD40-Fc coated, sample titrated, anti-human IgG Fc-HRP, chemiluminescence
T1 construct: Bought reagent; also called human CD40; not shown: Fc part of the bought fusion
Experimental: (§1) In short, 96-well flat bottom plate high binding plates (Greiner #655074) were coated with CD40-Fc (Ancell # 504-820) by incubating overnight at 4° C. The plates were washed (Wash buffer: PBS+0.05% Tween 20 (PBST) Medicago #09-9410-100) and then blocked in PBST+3% BSA (Merck, #1.12018.0100). The plates were washed again and samples or control (serial dilutions 1/2, starting at 0.2 ug/ml) were added to the wells.
(§2) The samples were incubated for 1 h at room temperature and then washed. Detection antibody, goat-anti-human IgG Fcγ-HRP (Jackson, #109-035-098) was added and the plates were subsequently developed using SuperSignal Pico Chemiluminescent substrate (Thermo #37069) and detected with Envision reader (Perkin Elmer). In FIG. 6A the binding of bispecific molecules at different concentrations to CD40 coated onto an ELISA plate is shown. In FIG. 6B, the binding of bispecific molecules at one fixed concentration (100 ng/ml) to CD40 coated onto an ELISA plate is shown. The bispecific molecules bind specifically to CD40.

[2] = target: T1, CD40-Fc (Ancell # 504-820); test: binding ELISA, CD40-Fc coated, one fixed concentration, anti-human IgG Fc-HRP
Experimental: as §1, §2

[3] = target: T1, CD40-Fc (Ancell # 504-820); test: binding ELISA, CD40-Fc coated, one fixed concentration (100 ng/ml), anti-human IgG Fc-HRP
Experimental: as §1, §2

[4] = target: T2, human CTLA4-Fc (Fitzgerald #30R-CD152) (human, UniProt P16410 38-152); test: binding ELISA, CTLA4-Fc coated, sample titrated, anti-human IgG Fc-HRP, chemiluminescence, data normalised to % [both panels]
T2 construct: Bought reagent; also called biotinylated-CTLA4; human CTLA-4 (Fitzgerald); not shown: Fc part of the bought fusion
T2 sequence (P16410 38-152 limits assumed): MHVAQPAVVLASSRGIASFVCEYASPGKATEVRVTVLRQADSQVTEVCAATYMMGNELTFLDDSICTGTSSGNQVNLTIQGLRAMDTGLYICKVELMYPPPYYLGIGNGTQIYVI
Experimental: (§3) The plates were washed (Wash buffer: PBS+0.05% Tween 20 (PBST) Medicago #09-9410-100) and then blocked in PBST+3% BSA (Merck, #1.12018.0100). The plates were washed again and sample or controls (serially diluted 1/3 from […]) were added to the wells. The samples were incubated for 1 h at room temperature and then washed. Detection antibody, goat-anti-human IgG Fγy-HRP (Jackson, #109-035-098) was added and the plates were subsequently developed using SuperSignal Pico Chemiluminescent substrate (Thermo #37069) and detected with an Envision reader (Perkin Elmer).

[5] = target: T3, CD28-Fc (provided by Simon Davis, Oxford University) (human, UniProt P10747 19-152, limits assumed); test: binding ELISA, coated CD28-Fc
T3 construct: Gift reagent; not shown: Fc part
Experimental: as §3

[6] = target: T2, human CTLA4-Fc (Fitzgerald #30R-CD152); test: binding ELISA, CTLA4-Fc coated, sample titrated, anti-human IgG Fc-HRP, chemiluminescence, data normalised to % [upper panel]
Experimental: as §3

[7] = target: T2, human CTLA4-Fc (Fitzgerald #30R-CD152); test: binding ELISA, CTLA4-Fc coated, sample titrated, anti-human IgG Fc-HRP, chemiluminescence, data normalised to % [lower panel]
Experimental: as §3

T1 sequence (P25942 21-193 limits assumed): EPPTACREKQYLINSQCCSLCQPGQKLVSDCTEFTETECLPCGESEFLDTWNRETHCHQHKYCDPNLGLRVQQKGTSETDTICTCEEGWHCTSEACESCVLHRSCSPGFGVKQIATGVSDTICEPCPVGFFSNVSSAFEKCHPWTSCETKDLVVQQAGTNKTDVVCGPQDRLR

binding result [1]: binds
B1: Bispecific polypeptide 956/530 (bispecific antibody, human IgG1, kappa)
light: QSVLTQPPSASGTPGQRVTISCSGSSSNIGSNTVNWYQQLPGTAPKLLIYRNNQRPSGVPDRFSGSKSGTSASLAISGLRSEDEADYYCAAWDDSLSGWRFGGGTKLTVLGGTVAAPSVFIFPPSDEQLKSGTASVVCLLNNFYPREAKVQWKVDNALQSGNSQESVTEQDSKDSTYSLSSTLTLSKADYEKHKVYACEVTHQGLSSPVTKSFNRGECSGGGGSGGGGSLKIQAYFNETADLPCQFANSQNQSLSELIVFWQDQENLVLNEVYLGKERFDAVDSKYMGRTSFDSDSWTLRLHNLQIKDKGIYQCIIHHKKPSGMVKIHQMDSELSVLA
heavy: not shown

EC50 (read off the curve) [1]: ~0.2 µg/mL
B2: Bispecific polypeptide 957/530 (bispecific antibody, human IgG1, kappa)
light: QSVLTQPPSASGTPGQRVTISCSGSSSNIGSNTVNWYQQLPGTAPKLLIYRNNQRPSGVPDRFSGSKSGTSASLAISGLRSEDEADYYCAAWDDSLSGWRFGGGTKLTVLGGTVAAPSVFIFPPSDEQLKSGTASVVCLLNNFYPREAKVQWKVDNALQSGNSQESVTEQDSKDSTYSLSSTLTLSKADYEKHKVYACEVTHQGLSSPVTKSFNRGECSGGGGSGGGGSAPLKIQAYFNETADLPCQFANSQNQSLSELIVFWQDQENLVLNEVYLGKERFDAVDSKYMGRTSFDSDSWTLRLHNLQIKDKGIYQCIIHHKKPSGMVKIHQMDSELSVLA
heavy: not shown

B3: isolated polypeptide of amino acid sequence SEQ ID NO: 8 (soluble CTLA-4 binding domain reference 904) (ligand)
chain: LKIQAYFNETADLPCQFANSQNQSLSELIVFWQDQENLVLNEVYLGKERFDAVDSKYMGRTSFDSDSWTLRLHNLQIKDKGIYQCIIHHKKPSGMVKIHQMDSELSVLA
notes: Control in the CD40 ELISA
binding result [2]: no binding (tested: 100 ng/ml (not on the sheet))

binding result [3]: binds
B4: Bispecific polypeptide 959/530 (bispecific antibody, human IgG1, kappa)
light: LKIQAYFNETADLPCQFANSQNQSLSELIVFWQDQENLVLNEVYLGKERFDAVDSKYMGRTSFDSDSWTLRLHNLQIKDKGIYQCIIHHKKPSGMVKIHQMDSELSVLAKRTVAQSVLTQPPSASGTPGQRVTISCSGSSSNIGSNTVNWYQQLPGTAPKLLIYRNNQRPSGVPDRFSGSKSGTSASLAISGLRSEDEADYYCAAWDDSLSGWRFGGGTKLTVLGGTVAAPSVFIFPPSDEQLKSGTASVVCLLNNFYPREAKVQWKVDNALQSGNSQESVTEQDSKDSTYSLSSTLTLSKADYEKHKVYACEVTHQGLSSPVTKSFNRGEC
heavy: not shown

binding result [3]: binds
B5: Bispecific polypeptide 960/530 (bispecific antibody, human IgG1, kappa)
light: LKIQAYFNETADLPCQFANSQNQSLSELIVFWQDQENLVLNEVYLGKERFDAVDSKYMGRTSFDSDSWTLRLHNLQIKDKGIYQCIIHHKKPSGMVKIHQMDSELSVLANFSQPQSVLTQPPSASGTPGQRVTISCSGSSSNIGSNTVNWYQQLPGTAPKLLIYRNNQRPSGVPDRFSGSKSGTSASLAISGLRSEDEADYYCAAWDDSLSGWRFGGGTKLTVLGGTVAAPSVFIFPPSDEQLKSGTASVVCLLNNFYPREAKVQWKVDNALQSGNSQESVTEQDSKDSTYSLSSTLTLSKADYEKHKVYACEVTHQGLSSPVTKSFNRGEC
heavy: not shown

binding result [3]: binds
B6: Bispecific polypeptide 958/531 (bispecific antibody, human IgG1, kappa)
heavy: not shown
light: QSVLTQPPSASGTPGQRVTISCSGSSSNIGSNTVNWYQQLPGTAPKLLIYRNNQRPSGVPDRFSGSKSGTSASLAISGLRSEDEADYYCAAWDDSLSGWRFGGGTKLTVLGGTVAAPSVFIFPPSDEQLKSGTASVVCLLNNFYPREAKVQWKVDNALQSGNSQESVTEQDSKDSTYSLSSTLTLSKADYEKHKVYACEVTHQGLSSPVTKSFNRGEC

EC50 (read off the curve) [4]: ~0.5 µg/mL
B7: wild type human CD86 soluble extracellular domain (control in Examples 2 and 4) (ligand)
chain: APLKIQAYFNETADLPCQFANSQNQSLSELVVFWQDQENLVLNEVYLGKEKFDSVHSKYMGRTSFDSDSWTLRLHNLQIKDKGLYQCIIHHKKPTGMIRIHQMNSELSVLA
notes: probably the same Fc fusion as the clones; also called wild-type protein CD86; wild type CD86; not shown: the clones it is compared with were gamma2/gamma4 Fc fusions and detection was by anti

binding result [5]: no binding
EC50 (read off the curve) [6]: ~0.1 µg/mL
B8: CD86 mutant clone 1038, gamma2/gamma4 fusion (Fc fusion)
chain: APLKIQAYFNETADLPCQFANSQNLSLSELVVFWQDQENLVLNEVYLGKEKFDSVDSKYMGRTSFDSDSWTLRLHNLQIKDKGIYQCIIHHKKPTGMVKIHEMNSELSVLA
notes: Expressed as gamma2/gamma4 fusion, protein A purified; not shown: gamma2/gamma4 Fc

binding result [5]: no binding
EC50 (read off the curve) [7]: ~0.05 µg/mL
B9: CD86 mutant clone 1045, gamma2/gamma4 fusion (Fc fusion)
chain: APLKIQAYFNETADLPCQFANSQNLTLSELVVFWQDQENLVLNEVYLGKEKFDSVDSKYMGRTSFDSDSWTLRLHNLQIKDKGLYQCIIHHKKPTGLVKIHEMNSELSVLA
notes: as for B8

binding result [5]: no binding
EC50 (read off the curve) [7]: ~0.02 µg/mL
B10: CD86 mutant clone 1046, gamma2/gamma4 fusion (Fc fusion)
chain: APLKIQAYFNETADLPCQFANSQNQSLSELVVFWQDQENLVLNEVYLGKEKFDSVDSKYMGRTSFDSDSWTLRLHNLQIEDKGIYQCIIHHKKPSGMVKIHQMDSELSVLA
notes: as for B8

binding result [5]: no binding
EC50 (read off the curve) [7]: ~0.03 µg/mL
B11: CD86 mutant clone 1044, gamma2/gamma4 fusion (Fc fusion)
chain: APLKIQAYFNETADLPCQFANSQNLTLSELVVFWQDQENLVLNEVYLGKEKFDSVSSKYMGRTSFDSDSWTLRLHNLQIKDKGIYQCIIHHKKPTGMIKIHEMSSELSVLA
notes: as for B8

EC50 (read off the curve) [4]: ~0.8 µg/mL
B12: CD86 H79A mutant (Peach et al) control clone (ligand)
chain: APLKIQAYFNETADLPCQFANSQNQSLSELVVFWQDQENLVLNEVYLGKEKFDSVASKYMGRTSFDSDSWTLRLHNLQIKDKGLYQCIIHHKKPTGMIRIHQMNSELSVLA
notes: also called Prior Art; not shown: probably the same gamma2/gamma4 Fc fusion

binding result [5]: no binding
EC50 (read off the curve) [6]: ~0.09 µg/mL
B13: CD86 mutant clone 1041, gamma2/gamma4 fusion (Fc fusion)
chain: APLKIQAYLNETADLPCQFANSQNLSLSELVVFWQDQENLVLNEVYLGKEKFDSVDSKYMGRTSFDSDSWTLRLHNLQIKDKGIYQCIIHHKKPTGLVKIHEMNSELSVLA
notes: as for B8

binding result [5]: no binding
EC50 (read off the curve) [6]: ~0.04 µg/mL
B14: CD86 mutant clone 1039, gamma2/gamma4 fusion (Fc fusion)
chain: APLKIQAYFNETADLPCQFANSQNLSLSELVVFWQDQENLVLNEVYLGKEKFDSVSSKYMGRTSFDSDSWTLRLHNLQIKDKGIYQCIIHHKKPSGMVKIHQMDSELSVLA
notes: as for B8

binding result [5]: no binding
EC50 (read off the curve) [7]: ~0.04 µg/mL
B15: CD86 mutant clone 1043, gamma2/gamma4 fusion (Fc fusion)
chain: APLKIQAYFNETADLPCQFANSQNLSLSELVVFWQDQENLVLNEVYLGKEKFDSVDSKYMGRTSFDSDSWTLRLHNLQIKDKGIYQCIIHHKKPTGMIKIHEMNSELSVLA
notes: as for B8

binding result [5]: no binding
B16: CD86 mutant clone 1047, gamma2/gamma4 fusion (Fc fusion)
chain: APLKIQAYFNETADLPCQFANSQNLSLSELVVFWQDQENLVLNEVYLGKEKFDSVDSKYMGRTSFDSDSWTLRLHNLQIKDKGIYQCIIHHKKPTGLVKIHEMNSELSVLA
notes: as for B8
